Source: article PMC6534634, “Understanding xylose isomerase from Burkholderia cenocepacia: insights into structure and functionality for ethanol production” (AMB Express, 2019)

B1: Xylose isomerase from Burkholderia cenocepacia (His6-XylA fusion protein) (enzyme, Burkholderia cenocepacia J2315, UniProt B4ENA5 1-440, looked up)
chain: MSYFEHIPAIRYEGPQSDNPLAYHHYDPDKRVLGKTLAEHLRIAVCYWHTFVWPGHDIFGQAAFRRPWQQPGDALERARMKADAAFEFFTKLGTPFYTFHDTDVAPEGDSLREYAANFARMVDYLGERQQASGVRLLWGTANLFSHPRFAAGAATNPNPDVFAWAATQVCHALDATHRLGGENYVLWGGREGYETLLNTDLKRERDQFARFLSMVVEHKHRIGFKGALLIEPKPQEPTKHQYDYDVATVHGFLVQYGLQNEIRVNIEANHATLAGHSFHHEIANAFALGVFGSVDANRGDPQNGWDTDQFPNSVEELTLAFYEILRHGGFTTGGMNFDAKVRRQSIDPEDLFYGHVGAIDVLALALERAAVLVENDRLDALRRQRYAQWDDAFGRKILAGGYTLESLAADALARGVDPQHASGAQERLENIVNQAIYGLR
notes: Xylose isomerase XylA of Burkholderia cenocepacia J2315, full-length gene made as synthetic DNA, cloned HindIII/BglII into pTrcHis-B; The fusion has a printed theoretical mass of 53,598.67 Da; also called XylABc; XI; source: E. coli TOP10, purified (Ni2+ resin, Superdex 200)

Key:
[1] = target: T1, XylABc (XylA, xylose isomerase from Burkholderia cenocepacia) (Burkholderia cenocepacia, UniProt B4ENA5); assay: sorbitol dehydrogenase-coupled NADH oxidation, […] nm; type: biochemical
T1 construct: full-length, synthetic gene in pTrcHis-B, His6 fusion (tag apparently kept), E. coli TOP10, Ni resin + Superdex 200; homotetramer ca. 208 kDa
T1 sequence (B4ENA5 1-440): B1 chain

[2] = target: the molecule itself; assay: native gel or EMSA; non-denaturing 4-20% gradient PAGE of the pooled Superdex 200 peak of His6-XylA, SDS-free sample and running buffers, standards 10-250 kDa; band identified by LC-MS/MS; tetramer
[3] = target: the molecule itself; assay: SDS-PAGE (SDS-resistant oligomer); SDS-PAGE (5% stacking, 12% resolving) after size exclusion; loading dye with 8 M urea, 4% SDS, 100 mM beta-mercaptoethanol; bands identified by LC-MS/MS; dimer beside monomer

| Molecule | IC50 [1] [mM] | stoichiometry N [2] | stoichiometry N [3] |
| --- | --- | --- | --- |
| OC[C@@H](O)[C@H](O)[C@@H](O)CO [xylitol] | 3.75 |  |  |
| B1 |  | 4 | 2 |
